Measurements: US20220073599A1 (Hoffmann-La Roche, published 2022)
Changes are numbered by the printed parent chain.

T1: human VEGFA-121 (human, UniProt P15692 181-395)
T1 construct: sources differ (in-house, R&D, Peprotech); also called hVEGF-A121
T1 sequence: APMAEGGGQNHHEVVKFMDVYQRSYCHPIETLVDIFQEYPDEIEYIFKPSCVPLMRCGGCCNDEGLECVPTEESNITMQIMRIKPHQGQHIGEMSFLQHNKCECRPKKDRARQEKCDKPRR

T2: ANG2 (human, UniProt O15123 19-496, limits assumed)
T2 sequence: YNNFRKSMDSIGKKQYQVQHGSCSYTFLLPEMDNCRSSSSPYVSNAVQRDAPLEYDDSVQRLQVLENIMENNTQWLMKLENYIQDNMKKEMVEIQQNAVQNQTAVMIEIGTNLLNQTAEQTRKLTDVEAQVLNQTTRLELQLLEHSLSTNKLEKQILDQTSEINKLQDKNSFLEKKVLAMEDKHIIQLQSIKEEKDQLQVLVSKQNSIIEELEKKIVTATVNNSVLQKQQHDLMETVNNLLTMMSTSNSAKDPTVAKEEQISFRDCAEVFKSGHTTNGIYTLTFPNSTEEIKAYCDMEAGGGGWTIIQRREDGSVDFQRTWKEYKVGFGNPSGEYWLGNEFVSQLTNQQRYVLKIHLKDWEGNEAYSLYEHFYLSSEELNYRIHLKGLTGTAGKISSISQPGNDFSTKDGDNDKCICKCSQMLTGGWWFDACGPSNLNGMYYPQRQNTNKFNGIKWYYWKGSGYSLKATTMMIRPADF

T3: human Ang2-RBD-muFc (human, UniProt O15123 275-496, limits assumed)
T3 construct: also called Human ANG2 (KinExA); not shown: murine Fc (muFc)
T3 sequence: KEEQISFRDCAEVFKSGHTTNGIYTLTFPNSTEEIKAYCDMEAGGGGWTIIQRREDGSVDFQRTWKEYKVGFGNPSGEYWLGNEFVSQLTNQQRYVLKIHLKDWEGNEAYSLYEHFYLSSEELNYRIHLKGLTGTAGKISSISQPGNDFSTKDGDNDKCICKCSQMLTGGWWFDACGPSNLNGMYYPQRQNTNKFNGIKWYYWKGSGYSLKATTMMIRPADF

T4: human VEGFA-121-His (human, UniProt P15692 181-395)
T4 construct: Prepared in-house; not shown: His tag
T4 sequence: T1 sequence

B1: bispecific anti-VEGF-A/anti-ANG2 Fab fragment P1AA0902 (Fab, V domains shown)
VH: DDHLVESGGGLVKPGGSLRLSCATADFFEYDDMSWVRQAPGKGLEWVGSISGRGDHKYLNTKFIGRFTISRDDSKNTLYLQMNSLRAEDTAVYYCARDVGFFDWWGQGTLVTVSS
VL: AIYMHQEPSSLSASVGDRVTITCHGSYWLNSELAWYQQKPGKAPKLLIFDGDFKVFDVPSRFSGSGSHEDYTLTISSLQPEDFATYYCQQYRYHPYTFGHGTKVEIKR
notes: Bispecific Fab with two paratopes in one VH/VL pair
B2: bispecific anti-VEGF-A/anti-ANG2 Fab fragment P1AD9820 (Fab, V domains shown)
VH: B1 VH with D1S, D2E, G52P, R53K
VL: B1 VL with L33V, F56Y, D57E
notes: Bispecific Fab with two paratopes in one VH/VL pair; also called P1AD9820 Fab
B3: bispecific anti-VEGF-A/anti-ANG2 Fab fragment P1AA8906 (Fab, V domains shown)
VH: DFQLVESGGGLVKPGGSLRLSCAASYEFEYDDMSWVRQAPGKGLEWVGSISPKGGSTYYNTKFIGRFTISRDNSKNTLYLQMNSLRAEDTAVYYCARDVGFFDMWGQGTLVTVSS
VL: B1 VL with N30S, S31N, E32Y, G51A, D52R, F53W, K54L, F56H, D57G
notes: Bispecific Fab with two paratopes in one VH/VL pair (DutaFab); CH1 and Ckappa

What was measured:
human VEGFA-121 [1] = molecular target: T1, human VEGFA-121; experiment: SPR, Fab captured by anti-Fab antibody; 4) Ang2-RBD first, then VEGFA-121 (binding of VEGFA-121 in the presence of Ang2); final combined signal of both antigens
Protocol: The bispecific Fab was captured by injecting a 6.5 μg/ml solution for 60 sec at a flow of 5 μl/min. Independent binding of each ligand to the bispecific Fab was analysed by determining the active binding capacity for each ligand, either added sequentially or simultaneously (flow of 10 μl/min): [0359] […] [0360] 2) Injection of human Ang2 with a concentration of 5 μg/ml for 60 sec (identifies single binding of the antigen) [0361] […] [0362] […] [0363]
Independent binding of candidate antibodies to human VEGF-A and human ANG2 was analysed by SPR as described above in the “Materials & general methods” section.

human VEGFA-121 [2] = molecular target: T1, human VEGFA-121; experiment: cell-based or functional assay
ANG2 = molecular target: T2, ANG2; experiment: cell-based or functional assay
human Ang2-RBD-muFc = molecular target: T3, human Ang2-RBD-muFc; experiment: KinExA equilibrium titration in solution, constant Ang2-RBD-muFc
Protocol: All KinExA® experiments were performed at room temperature (RT) using PBS pH 7.4 with 0.01% BSA and 0.01% Tween® 20 (BioRad, #161-0781) as running buffer. […] A flow rate of 0.25 ml/min was used. A constant amount of Ang2-RBD-muFc (50 pM and in a second experiment 500 pM) was titrated with tested antibody by twofold serial dilution starting at 4 nM (concentration range 1.95 pM-4000 pM). Antigen-antibody complexes were incubated at RT for at least 8 h to allow equilibrium to be reached. Equilibrated mixtures were then drawn through a column of Anti-Ang2 antibody (MAB098) coupled beads in the KinExA® system at a volume of 750 μl for 50 pM constant Ang2 and at a volume of 188 μl for 500 pM constant Ang2 permitting unbound Ang2 to be captured by the beads without perturbing the equilibrium state of the solution. Bound Ang2 was detected using a second biotinylated anti-Ang2 antibody (BAM0981) with a concentration of 250 ng/ml and following by an injection of 250 ng/ml Streptavidin Alexa Fluor™ 647 conjugate in sample buffer. Each sample was measured in duplicates for all equilibrium experiments. The KD was obtained from non-linear regression analysis of the data using a one-site homogeneous binding model contained within the KinExA® software (Version 4.0.11) using the “standard analysis” method. The software calculates the KD and determines the 95% confidence interval by fitting the data points to a theoretical KD curve. The 95% confidence interval is given as KD low and KD high.

human VEGFA-121-His [3] = molecular target: T4, human VEGFA-121-His; experiment: SPR, VEGF-A121-His captured by anti-His antibody, Fab injected, single cycle kinetics, 1:1 fit
Protocol: An anti-His capturing antibody (GE Healthcare 28995056) was immobilized to a Series S Sensor Chip C1 (GE Healthcare BR100535) using standard amine coupling chemistry resulting in a surface density of approximately 600 resonance units (RU). As running and dilution buffer, HBS-P+ (10 mM HEPES, 150 mM NaCl pH 7.4, 0.05% Surfactant P20) was used. […] A dilution series of the tested antibody (3.7-300 nM, 1:3 dilution) was successively injected for 60 s each, dissociation was monitored for 3600 s at a flow rate of 30 μl/min (single cycle kinetics). The surface was regenerated by injecting 10 mM Glycine pH 1.5 for 60 s at a flow of 5 μl/min. […] Curve fitting was performed using the 1:1 Langmuir binding model within the Biacore® evaluation software.
Binding kinetics to human VEGF-A and human ANG2 for the candidate antibodies were assessed as described above using the indicated Fab fragments (amino acid sequence as illustrated in Table 4).

human VEGFA-121-His [4] = molecular target: T4, human VEGFA-121-His; experiment: KinExA equilibrium titration in solution, constant VEGFA-121-His
Protocol: All KinExA® experiments were performed at room temperature (RT) using PBS pH 7.4 with 0.01% BSA and 0.01% Tween® 20 (BioRad, #161-0781) as running buffer. […] A flow rate of 0.25 ml/min was used. […] Antigen-antibody complexes were incubated at RT for at least 8 h to allow equilibrium to be reached. […] Each sample was measured in duplicates for all equilibrium experiments. The KD was obtained from non-linear regression analysis of the data using a one-site homogeneous binding model contained within the KinExA® software (Version 4.0.11) using the “standard analysis” method. The software calculates the KD and determines the 95% confidence interval by fitting the data points to a theoretical KD curve. The 95% confidence interval is given as KD low and KD high.

Row | Binder | Signal [%] (human VEGFA-121 [1]) | IC50, Reporter Gene Assay (Hek_NFAT_KDR_Luc cells stimulated with VEGF-A121, luminescence) (human VEGFA-121 [2]) [nM] | IC50, pTie2-Assay (Tie2 phosphorylation in Hek293 cells expressing Tie2, stimulated with Ang-2) (ANG2) [nM] | Kd (human Ang2-RBD-muFc) [pM] | kon (human VEGFA-121-His [3]) [M⁻¹ s⁻¹] | Kd (human VEGFA-121-His [4]) [nM]
1 | B1 | 90 | 1.09 | 7 | 2.75 | 737000 | –
2 | B2 | 92 | 1.07 | 10 | 1.72 | 727000 | –
3 | B3 | 91 | – | – | 7180 | 1.66e+06 | 0.0109
